The record followed here is article PMC7062184, “A lipoprotein lipase–GPI-anchored high-density lipoprotein–binding protein 1 fusion lowers triglycerides in mice: Implications for managing familial chylomicronemia syndrome” (The Journal of Biological Chemistry, 2019).

First the molecules themselves.
B1: Soluble GPIHBP1(21–151)-FLAG-His6-Avi (domain or fragment, human)
chain: QTQQEEEEEDEDHGPDDYDEEDEDEVEEEETNRLPGGRSRVLLRCYTCKSLPRDERCNLTQNCSHGQTCTTLIAHGNTESGLLTTHSTWCTDSCQPITKTVEGTQVTMTCCQSSLCNVPPWQSSRVQDPTG
modifications: biotin on the C-terminal AviTag (BirA) where immobilised or labelled with streptavidin-D2; nonbiotinylated as free competitor in TR-FRET
notes: human GPIHBP1, soluble fragment of residues 21–151; also called GPIHBP1-Avi; hGPIHBP1-Avi; source: HEK293T, transfected, purified (Ni-NTA); also co-expressed with LPL and LMF1 in HEK293T and purified as the complex (Ni-NTA, SEC); not shown: AviTag, C-terminal, kept
B3: His6-TEV-LPL (N-terminally His6-tagged human lipoprotein lipase) (enzyme)
chain: ADQRRDFIDIESKFALRTPEDTAEDTCHLIPGVAESVATCHFNHSSKTFMVIHGWTVTGMYESWVPKLVAALYKREPDSNVIVVDWLSRAQEHYPVSAGYTKLVGQDVARFINWMEEEFNYPLDNVHLLGYSLGAHAAGIAGSLTNKKVNRITGLDPAGPNFEYAEAPSRLSPDDADFVDVLHTFTRGSPGRSIGIQKPVGHVDIYPNGGTFQPGCNIGEAIRVIAERGLGDVDQLVKCSHERSIHLFIDSLLNEENPSKAYRCSSKEAFEKGLCLSCRKNRCNNLGYEINKVRAKRSSKMYLKTRSQMPYKVFHYQVKIHFSGTESETHTNQAFEISLYGTVAESENIPFTLPEVSTNKTYSFLIYTEVDIGELLMLKLKWKSDSYFSWSDWWSSPGFAIQKIRVKAGETQKKVIFCSREKVSHLQKGKAPAVFVKCHDKSLNKKSG
notes: human lipoprotein lipase; also called His6-LPL; hLPL; not shown: His6, N-terminal, kept
B4: His6-LPL-HA-FLAG (enzyme, human)
chain: ADQRRDFIDIESKFALRTPEDTAEDTCHLIPGVAESVATCHFNHSSKTFMVIHGWTVTGMYESWVPKLVAALYKREPDSNVIVVDWLSRAQEHYPVSAGYTKLVGQDVARFINWMEEEFNYPLDNVHLLGYSLGAHAAGIAGSLTNKKVNRITGLDPAGPNFEYAEAPSRLSPDDADFVDVLHTFTRGSPGRSIGIQKPVGHVDIYPNGGTFQPGCNIGEAIRVIAERGLGDVDQLVKCSHERSIHLFIDSLLNEENPSKAYRCSSKEAFEKGLCLSCRKNRCNNLGYEINKVRAKRSSKMYLKTRSQMPYKVFHYQVKIHFSGTESETHTNQAFEISLYGTVAESENIPFTLPEVSTNKTYSFLIYTEVDIGELLMLKLKWKSDSYFSWSDWWSSPGFAIQKIRVKAGETQKKVIFCSREKVSHLQKGKAPAVFVKCHDKSLNKKSG
notes: human lipoprotein lipase; Used as the complex with biotinylated hGPIHBP1-Avi in the TR-FRET assay; also called His6-hLPL-HA-FLAG; source: HEK293T, co-transfected with GPIHBP1 and LMF1, complex purified (Ni-NTA, SEC); not shown: His6, N-terminal, kept; HA, C-terminal, kept; FLAG, C-terminal, kept

Assay [1] addresses T1, His6-LPL-HA-FLAG (human).
T1 chain: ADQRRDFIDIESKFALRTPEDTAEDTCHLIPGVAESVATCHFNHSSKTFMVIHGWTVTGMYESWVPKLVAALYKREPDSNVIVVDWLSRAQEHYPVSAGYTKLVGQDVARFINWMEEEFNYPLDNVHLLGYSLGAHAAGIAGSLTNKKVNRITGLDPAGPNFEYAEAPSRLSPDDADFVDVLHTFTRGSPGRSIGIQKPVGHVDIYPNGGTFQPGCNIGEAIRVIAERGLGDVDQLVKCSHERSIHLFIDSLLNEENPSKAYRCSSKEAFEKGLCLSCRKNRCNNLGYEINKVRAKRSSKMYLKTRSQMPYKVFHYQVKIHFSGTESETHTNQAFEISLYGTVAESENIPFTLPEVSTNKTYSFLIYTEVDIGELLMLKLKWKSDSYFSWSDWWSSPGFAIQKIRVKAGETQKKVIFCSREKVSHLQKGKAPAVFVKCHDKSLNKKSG
The experiment in a line: FRET.

Assay [2] addresses B4. Nature of the assay: FRET or BRET; TR-FRET; 10 nM His6-hLPL-HA-FLAG/biotinylated hGPIHBP1-Avi complex challenged with 1–1000 nM nonbiotinylated ANGPTL4, ANGPTL3 or GPIHBP1, 1 h room temperature; 20 mM HEPES pH 7.4, 100 mM NaCl, 10% heat-inactivated FBS, 5 mM CaCl2; anti-HA-Tb and streptavidin-D2. The following applies: both partners purified. On the technique in general: In BRET a luciferase serves as donor, and the signal depends on an acceptor being close.

In assay [3] the target is B3. Nature of the assay: SEC; His6-LPL, GPIHBP1 and LMF1 co-transfected 3:1:1 in HEK293T; complex captured from the medium by Ni-affinity, then Superdex 200 in 10 mM Tris pH 7.5, 300 mM NaCl; eluted at ~75 kDa. Particulars: both partners purified.
The target in assay [4] is B1. The experiment in a line: ELISA; 10 nM LPL/GPIHBP1 complex or fusion, biotinylated at the C-terminal AviTag of GPIHBP1, incubated with ANGPTL4 (12-point 2-fold dilution from 100 nM), then applied to a streptavidin-coated MSD plate; LPL and ANGPTL4 detected with specific antibodies. The following applies: both partners purified. A general note: An ELISA detects its analyte on a solid surface through an enzyme-linked reagent.

The target of assay [5] is B1. Nature of the assay: FRET or BRET; TR-FRET; 10 nM His6-hLPL-HA-FLAG/biotinylated hGPIHBP1-Avi complex challenged with 1–1000 nM nonbiotinylated ANGPTL4, ANGPTL3 or GPIHBP1, 1 h room temperature; 20 mM HEPES pH 7.4, 100 mM NaCl, 10% heat-inactivated FBS, 5 mM CaCl2; anti-HA-Tb and streptavidin-D2. Particulars: both partners purified.
The target in assay [6] is B3. Nature of the assay: cell-based or functional assay.
In assay [7] the target is T2, LPL (untagged human lipoprotein lipase) (human).
T2 chain: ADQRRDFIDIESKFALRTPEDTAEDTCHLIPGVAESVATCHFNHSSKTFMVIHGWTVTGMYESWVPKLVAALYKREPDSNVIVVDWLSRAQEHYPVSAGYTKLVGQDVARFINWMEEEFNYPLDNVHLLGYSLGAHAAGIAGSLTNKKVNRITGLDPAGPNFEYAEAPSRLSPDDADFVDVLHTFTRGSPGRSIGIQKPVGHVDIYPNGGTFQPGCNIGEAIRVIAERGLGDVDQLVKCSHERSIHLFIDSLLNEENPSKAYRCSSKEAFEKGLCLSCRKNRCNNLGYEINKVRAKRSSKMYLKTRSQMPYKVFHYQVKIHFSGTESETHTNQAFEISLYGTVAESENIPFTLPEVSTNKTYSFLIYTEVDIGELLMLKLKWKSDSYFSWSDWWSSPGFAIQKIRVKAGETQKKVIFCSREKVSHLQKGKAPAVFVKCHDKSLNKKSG
Nature of the assay: cell-based or functional assay.

Assay [8] concerns the target T1, His6-LPL-HA-FLAG. The experiment in a line: FRET; dissociation of LPL(HA)-GPIHBP1(Avi) complex (10 nM).
Assay [9] deals with T3, LPL(28–475)-(G4S)4-hGPIHBP1(21–151)-FLAG-His6-Avi (human, biotin on the C-terminal AviTag (BirA) in ELISA and SPR).
T3 chain: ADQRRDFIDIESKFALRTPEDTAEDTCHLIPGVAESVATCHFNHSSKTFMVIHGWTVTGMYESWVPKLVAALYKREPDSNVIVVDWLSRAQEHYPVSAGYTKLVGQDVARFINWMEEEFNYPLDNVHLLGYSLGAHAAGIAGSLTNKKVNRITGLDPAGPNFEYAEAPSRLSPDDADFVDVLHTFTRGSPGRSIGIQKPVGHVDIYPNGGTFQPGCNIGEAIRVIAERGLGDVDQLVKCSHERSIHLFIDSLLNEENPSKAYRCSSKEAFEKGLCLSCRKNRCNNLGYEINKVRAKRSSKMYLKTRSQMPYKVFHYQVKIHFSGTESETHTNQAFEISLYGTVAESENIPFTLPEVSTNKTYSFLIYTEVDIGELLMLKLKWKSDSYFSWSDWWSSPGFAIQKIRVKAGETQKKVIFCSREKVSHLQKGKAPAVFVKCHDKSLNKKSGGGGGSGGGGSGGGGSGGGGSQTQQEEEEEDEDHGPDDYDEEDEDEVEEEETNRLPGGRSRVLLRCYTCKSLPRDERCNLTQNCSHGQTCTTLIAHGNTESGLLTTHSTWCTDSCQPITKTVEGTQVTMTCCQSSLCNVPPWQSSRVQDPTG
Nature of the assay: cell-based or functional assay.

The target in assay [10] is T1, His6-LPL-HA-FLAG. Nature of the assay: FRET; competition: dissociation of LPL(HA)/GPIHBP1(Avi) complex.

As usually defined, the IC50 is the point on the concentration scale where inhibition reaches its midpoint. The molecule B1 returned an IC50 with His6-LPL-HA-FLAG [1] of 15 nM. In the assay with His6-LPL-HA-FLAG [2], the binding result is “binds”.

B2: Soluble GPIHBP1(21–151), untagged (domain or fragment, human)
chain: QTQQEEEEEDEDHGPDDYDEEDEDEVEEEETNRLPGGRSRVLLRCYTCKSLPRDERCNLTQNCSHGQTCTTLIAHGNTESGLLTTHSTWCTDSCQPITKTVEGTQVTMTCCQSSLCNVPPWQSSRVQDPTG
notes: human GPIHBP1, soluble fragment of residues 21–151 (part of the extracellular domain); also called untagged GPIHBP1
For orientation: stoichiometry N means the number of molecules, sites or subunits per partner or assembly. As for B2, the “stoichiometry N” value in assay [3] is 1.
For B3, the binding result in [4] is on record as “binds”.
Turning to B4, the binding result in [5] is “binds”.

B5: ANGPTL3(17–460)-FLAG-His6-Avi (natural protein)
chain: SRIDQDNSSFDSLSPEPKSRFAMLDDVKILANGLLQLGHGLKDFVHKTKGQINDIFQKLNIFDQSFYDLSLQTSEIKEEEKELRRTTYKLQVKNEEVKNMSLELNSKLESLLEEKILLQQKVKYLEEQLTNLIQNQPETPEHPEVTSLKTFVEKQDNSIKDLLQTVEDQYKQLNQQHSQIKEIENQLRRTSIQEPTEISLSSKPRAPRTTPFLQLNEIRNVKHDGIPAECTTIYNRGEHTSGMYAIRPSNSQVFHVYCDVISGSPWTLIQHRIDGSQNFNETWENYKYGFGRLDGEFWLGLEKIYSIVKQSNYVLRIELEDWKDNKHYIEYSFYLGNHETNYTLHLVAITGNVPNAIPENKDLVFSTWDHKAKGHFNCPEGYSGGWWWHDECGENNLNGKYNKPRAKSKPERRRGLSWKSQNGRLYSIKSTKMLIHPTDSESFE
As to B5, the “IC50 of ANGPTL3-mediated inactivation of 10 nM coexpressed LPL/GPIHBP1 complex, hydrolysis of VLDL” value in assay [6] was 300 nM. Besides, the “IC50 of ANGPTL3-mediated inactivation of 10 nM LPL alone, hydrolysis of VLDL” value in [7] came out at 8 nM. The same molecule had an IC50 in the assay with His6-LPL-HA-FLAG [8] of 100 nM.

B6: ANGPTL4(26–406)-FLAG-His6-Avi (natural protein)
chain: QPGPVQSKSPRFASWDEMNVLAHGLLQLGQGLREHAERTRSQLSALERRLSACGSACQGTEGSTDLPLAPESRVDPEVLHSLQTQLKAQNSRIQQLFHKVAQQQRHLEKQHLRIQHLQSQFGLLDHKHLDHEVAKPARRKRLPEMAQPVDPAHNVSRLHRLPRDCQELFQVGERQSGLFEIQPQGSPPFLVNCKMTSDGGWTVIQRRHDGSVDFNRPWEAYKAGFGDPHGEFWLGLEKVHSITGDRNSRLAVQLRDWDGNAELLQFSVHLGGEDTAYSLQLTAPVAGQLGATTVPPSGLSVPFSTWDQDHDLRRDKNCAKSLSGGWWFGTCSHSNLNGQYFRSIPQQRQKLKKGIFWKTWRGRYYPLQATTMLIQPMAAEAAS
As to B6, the “IC50 of ANGPTL4-mediated inactivation of 10 nM coexpressed LPL/GPIHBP1 complex, hydrolysis of VLDL” value in assay [6] worked out at 19 nM. For the same molecule, the “IC50 of ANGPTL4-mediated inactivation of 10 nM fusion protein against that of LPL alone, hydrolysis of VLDL” value in assay [9] was 36 fold. Further, the “IC50 of ANGPTL4-mediated inactivation of 10 nM fusion protein against that of the coexpressed LPL/GPIHBP1 complex, hydrolysis of VLDL” value in assay [9] came to 6 fold. In assay [7], the “IC50 of ANGPTL4-mediated inactivation of 10 nM LPL alone, hydrolysis of VLDL” value came to 3 nM. In addition, the IC50 with His6-LPL-HA-FLAG [8] was determined as 10 nM; with His6-LPL-HA-FLAG [10], 18 nM.
